Measurements from patent US20260258084A1, “New Peptides as Selective IL-23 Receptor Antagonists” (Sanofi, priority 2022, published 2026).
Starred links: 1 amine or outer side, 2 acyl side, 3 side chain; linkers in the order of their positions; H or OH if unused. Positions of bridges follow the written chain, without caps; N, C: chain ends. Non-standard residues stand in square brackets, D forms with d. Yde = (2S)-2-amino-3-[4-[2-(dimethylamino)ethoxy]phenyl]propanoic acid, CN(C)CCOc1ccc(C[C@H](N[*:1])C(=O)[*:2])cc1; Phe(4-OMe) = COc1ccc(C[C@H](N[*:1])C(=O)[*:2])cc1; Trp(7-Me) = Cc1cccc2c(C[C@H](N)C(=O)O)c[nH]c12; 2Nal = N[C@@H](Cc1ccc2ccccc2c1)C(=O)O; AEF = NCCOc1ccc(C[C@H](N)C(=O)O)cc1; 3Pal = N[C@@H](Cc1cccnc1)C(=O)O; Dad = desamino-aspartamic acid; Lys(Me) = CNCCCC[C@H](N)C(=O)O; αMeL = CC(C)C[C@](C)(N)C(=O)O; Nmapt = not defined here; Thp = NC1(C(=O)O)CCOCC1; Aib = CC(C)(N)C(=O)O; Ahx = NCCCCCC(=O)O; Ava = NCCCCC(=O)O; Sar = CNCC(=O)O

T1: IL-23 receptor on the surface of HEK-Blue IL-23 cells (UniProt Q5VWK5 24-629, limits assumed)
T1 sequence (looked up): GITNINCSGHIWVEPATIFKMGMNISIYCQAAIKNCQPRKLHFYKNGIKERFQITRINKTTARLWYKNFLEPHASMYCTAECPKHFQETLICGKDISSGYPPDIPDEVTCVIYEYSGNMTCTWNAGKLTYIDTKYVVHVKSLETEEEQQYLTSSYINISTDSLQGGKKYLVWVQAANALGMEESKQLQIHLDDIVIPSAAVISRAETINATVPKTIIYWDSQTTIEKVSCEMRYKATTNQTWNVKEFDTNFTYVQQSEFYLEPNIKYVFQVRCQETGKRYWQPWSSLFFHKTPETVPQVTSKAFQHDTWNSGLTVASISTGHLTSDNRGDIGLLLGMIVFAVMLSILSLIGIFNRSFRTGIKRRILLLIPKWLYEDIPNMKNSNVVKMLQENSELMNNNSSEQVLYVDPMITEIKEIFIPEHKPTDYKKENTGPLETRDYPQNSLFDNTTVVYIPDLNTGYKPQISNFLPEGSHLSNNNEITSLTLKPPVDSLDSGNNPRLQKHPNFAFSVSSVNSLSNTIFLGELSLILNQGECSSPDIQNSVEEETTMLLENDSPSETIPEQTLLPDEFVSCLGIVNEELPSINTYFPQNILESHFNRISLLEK


Biological target: T1, IL-23 receptor on the surface of …
Assay: cell-based or functional assay

Row | Binder | pSTAT3 (nM)
1 | [Ahx]CNTWQC[Phe(4-OMe)][2Nal][Aib]ENN-NH2 (lactam N-11; disulfide 2-7; SMILES COc1ccc(C[C@@H]2NC(=O)[C@@H]3CSSC[C@H](NC(=O)CCCCCNC(=O)CC[C@@H](C(=O)N[C@@H](CC(N)=O)C(=O)N[C@@H](CC(N)=O)C(N)=O)NC(=O)C(C)(C)NC(=O)[C@H](Cc4ccc5ccccc5c4)NC2=O)C(=O)N[C@@H](CC(N)=O)C(=O)N[C@@H]([C@@H](C)O)C(=O)N[C@@H](Cc2c[nH]c4ccccc24)C(=O)N[C@@H](CCC(N)=O)C(=O)N3)cc1) [Compound of SEQ ID NO: 2] | 54
2 | [Nmapt]CKWQC[AEF][2Nal][Thp]ENG-NH2 (lactam N-10; disulfide 2-6; not fully specified (residue 3); printed as Nmapt(§1)-C(§3)(@2)-K[aAc](@3)-W-Q-C(@2)-Yae-Nal-Thp-E(§1)-N-G-NH2; reading uncertain; also: K3 acetylated (K[aAc]), acetyl site not given here, ε-NH2 takes the Cys2 bond) [Compound of SEQ ID NO: 16] | 32.1
3 | [Nmapt]CKWQC[AEF][2Nal][αMeL]EAG-NH2 (lactam N-10; disulfide 2-6; not fully specified (residue 3); printed as Nmapt(§1)-C(§3)(@2)-K[aAc](@3)-W-Q-C(@2)-Yae-Nal-Mle-E(§1)-A-G-NH2; reading uncertain; also: K3 acetylated (K[aAc]), acetyl site not given here, ε-NH2 takes the Cys2 bond) [Compound of SEQ ID NO: 18] | 69.5
4 | [Nmapt]CKWQC[AEF][2Nal][Aib]ENG-NH2 (lactam N-10; disulfide 2-6; not fully specified (residue 3); printed as Nmapt(§1)-C(§3)(@2)-K[aAc](@3)-W-Q-C(@2)-Yae-Nal-Aib-E(§1)-N-G-NH2; reading uncertain; also: K3 acetylated (K[aAc]), acetyl site not given here, ε-NH2 takes the Cys2 bond) [Compound of SEQ ID NO: 15] | 29.2
5 | [Nmapt]CKWQC[AEF][2Nal][Aib]EA[dL]-NH2 (lactam N-10; disulfide 2-6; not fully specified (residue 3); printed as Nmapt(§1)-C(§3)(@2)-K[aAc](@3)-W-Q-C(@2)-Yae-Nal-Aib-E(§1)-A-(D-Leu)-NH2; reading uncertain; also: K3 acetylated (K[aAc]), acetyl site not given here, ε-NH2 takes the Cys2 bond) [Compound of SEQ ID NO: 19] | 88.3
6 | [Nmapt]CKWQC[AEF][2Nal][Thp]EAG-NH2 (lactam N-10; disulfide 2-6; not fully specified (residue 3); printed as Nmapt(§1)-C(§3)(@2)-K[aAc](@3)-W-Q-C(@2)-Yae-Nal-Thp-E(§1)-A-G-NH2; reading uncertain; also: K3 acetylated (K[aAc]), acetyl site not given here, ε-NH2 takes the Cys2 bond) [Compound of SEQ ID NO: 17] | 62

The remaining lines, values ahead:

Row | pSTAT3 (nM) | Binder
7 | 1.37 | [Ava]CNT[Trp(7-Me)]K(Ac)C[Yde][2Nal][αMeL]ENH-NH2 (lactam N-11; disulfide 2-7; SMILES CC(=O)NCCCC[C@@H]1NC(=O)[C@H](Cc2c[nH]c3c(C)cccc23)NC(=O)[C@H]([C@@H](C)O)NC(=O)[C@H](CC(N)=O)NC(=O)[C@@H]2CSSC[C@H](NC1=O)C(=O)N[C@@H](Cc1ccc(OCCN(C)C)cc1)C(=O)N[C@@H](Cc1ccc3ccccc3c1)C(=O)N[C@@](C)(CC(C)C)C(=O)N[C@H](C(=O)N[C@@H](CC(N)=O)C(=O)N[C@@H](Cc1c[nH]cn1)C(N)=O)CCC(=O)NCCCCC(=O)N2) [Compound of SEQ ID NO: 22]
8 | 3.32 | [Dad]CNT[Trp(7-Me)]K(Ac)C[Yde][2Nal][αMeL]KNH-NH2 (lactam N-11; disulfide 2-7) [Compound of SEQ ID NO: 23]
9 | 3.12 | [Ava]CNT[Trp(7-Me)]K(Ac)C[Yde][2Nal][Aib]ENH-NH2 (lactam N-11; disulfide 2-7; SMILES CC(=O)NCCCC[C@@H]1NC(=O)[C@H](Cc2c[nH]c3c(C)cccc23)NC(=O)[C@H]([C@@H](C)O)NC(=O)[C@H](CC(N)=O)NC(=O)[C@@H]2CSSC[C@H](NC1=O)C(=O)N[C@@H](Cc1ccc(OCCN(C)C)cc1)C(=O)N[C@@H](Cc1ccc3ccccc3c1)C(=O)NC(C)(C)C(=O)N[C@H](C(=O)N[C@@H](CC(N)=O)C(=O)N[C@@H](Cc1c[nH]cn1)C(N)=O)CCC(=O)NCCCCC(=O)N2) [Compound of SEQ ID NO: 20]
10 | 3.37 | [Ava]CNTWQC[Yde][2Nal][Thp]ENN-NH2 (lactam N-11; disulfide 2-7; SMILES C[C@@H](O)[C@@H]1NC(=O)[C@H](CC(N)=O)NC(=O)[C@@H]2CSSC[C@H](NC(=O)[C@H](CCC(N)=O)NC(=O)[C@H](Cc3c[nH]c4ccccc34)NC1=O)C(=O)N[C@@H](Cc1ccc(OCCN(C)C)cc1)C(=O)N[C@@H](Cc1ccc3ccccc3c1)C(=O)NC1(CCOCC1)C(=O)N[C@H](C(=O)N[C@@H](CC(N)=O)C(=O)N[C@@H](CC(N)=O)C(N)=O)CCC(=O)NCCCCC(=O)N2) [Compound of SEQ ID NO: 26]
11 | 39.2 | [Dad]CNTWQC[Yde][2Nal][Aib][Lys(Me)]NN-NH2 (lactam N-11; disulfide 2-7) [Compound of SEQ ID NO: 25]
12 | 2.67 | [Ava]CNT[Trp(7-Me)]K(Ac)C[Yde][2Nal][Thp]ENH-NH2 (lactam N-11; disulfide 2-7; SMILES CC(=O)NCCCC[C@@H]1NC(=O)[C@H](Cc2c[nH]c3c(C)cccc23)NC(=O)[C@H]([C@@H](C)O)NC(=O)[C@H](CC(N)=O)NC(=O)[C@@H]2CSSC[C@H](NC1=O)C(=O)N[C@@H](Cc1ccc(OCCN(C)C)cc1)C(=O)N[C@@H](Cc1ccc3ccccc3c1)C(=O)NC1(CCOCC1)C(=O)N[C@H](C(=O)N[C@@H](CC(N)=O)C(=O)N[C@@H](Cc1c[nH]cn1)C(N)=O)CCC(=O)NCCCCC(=O)N2) [Compound of SEQ ID NO: 21]
13 | 0.59 | [Ava]CNT[Trp(7-Me)]LC[Yde][2Nal][Thp]EN[3Pal][Sar]-NH2 (lactam N-11; disulfide 2-7; SMILES Cc1cccc2c(C[C@@H]3NC(=O)[C@H]([C@@H](C)O)NC(=O)[C@H](CC(N)=O)NC(=O)[C@@H]4CSSC[C@H](NC(=O)[C@H](CC(C)C)NC3=O)C(=O)N[C@@H](Cc3ccc(OCCN(C)C)cc3)C(=O)N[C@@H](Cc3ccc5ccccc5c3)C(=O)NC3(CCOCC3)C(=O)N[C@H](C(=O)N[C@@H](CC(N)=O)C(=O)N[C@@H](Cc3cccnc3)C(=O)N(C)CC(N)=O)CCC(=O)NCCCCC(=O)N4)c[nH]c12) [Compound of SEQ ID NO: 24]
